In the nanobody polyreactivity screen of Harvey et al. (2022):

Test: yeast display, Sf9 membrane polyspecificity reagent, FACS + sequencing; frameworks hold sequencing errors
How it was run: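 Synthetic nanobody libraries on Saccharomyces cerevisiae BJ5465 were galactose-induced for 36–48 hours, stained 1 hour at 4 °C with 10% biotinylated, detergent-solubilized Sf9 membrane reagent and enriched on streptavidin microbeads. FACS then separated cells into low and high (top ~1%) gates by anti-HA (expression) and streptavidin (reagent binding) fluorescence. Genes were colony-PCR amplified, MiSeq 2 × 250 sequenced and CDR-length filtered. A clone's polyreactivity label is that of its gate of origin.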

Sequence | polyreactivity (PSR sort gate)
QDQLVESGGGLVQAGGSLRLSCAASGLTFKRNAMGWYRQAPVKERELVAAIRYSTDSTNYADSVKGRFTISRDNAKNTVYLQLNSMNPEDTAVYYCAKDKQDYEYWGQGTQVTVSS | low polyreactivity
QVQLVESGGVLVQAGGSLRLSCAASRSTFTSYAMGWSRQAPGKERELVADISFSGGSTYYADSVKGRFTISRDIAKNSVYSQMNRLTPEDTAVYSCAARIYKRYYWGQGTQVTVSS | high polyreactivity
QVQLVESGGGLVQAGGSLRLSCAASGSTFGFYDMGWYRQAPGKERELVAAITSGDITYADSVKGRFTISRDNAKNTVYLQMNSLKPEDTAVYYCATTSYGYWFGYIPEVDYWGQGTQVTVSS | low polyreactivity
QVQLVESGGGLVQAGGSLRLSCAASGRTFTSYGMGWYRPEPGKERELVAAITRSTGGTYYADSVKGRFTISRDHAKNTVYLQMNSLKPEDTAVYYCNTGPLYSPFDYWGQGTQVTVSS | low polyreactivity
QVQLVESGGGLVQAGGSLRLSCAASGRIFVYNAMGWYRQAPGKERELVASITSSGGSTYYADSVKGRFTISRDNAKNTVYLQMNSLKPEDTAVYYCAADVQPDTRSTPEMDYWGQGTQVTVSS | low polyreactivity
QVQLVESGGGLVQAGGSLRLSCAASGLTFRWYAMGWYRQEPGKERELVAAISSSGNTNYADSVKGRFTISRDNAKNTVYLQMNSLKPGDSAVYYCAASYYSYPPGLSQTRLTYYYWGQGTQLTVSS | high polyreactivity
QVQLVESGGGLVQAGGSLRLSCAASGFIFRWYAMGWYRQAPGKERELVAAISSSSGSTYYADSVKGRFTISRDNAKNTVYLQMNSLKPEDTAVYYCAAESNRRFEGEYWGQGTQVTVSS | high polyreactivity
QVQLVESVGGLVQAGGSLRLSCAASGFTFYKYAMGWYRQAPGKEREFVAAIRTRSDSTYYADSVKGRFTISRDNAKNTVYLQMNSLKPEDTAVYYCAAQGYVEVGYSRYYYWGQGTQVTVSS | high polyreactivity
QVQLVESGGGLVQAGGSLRLSCAASGSIFRRNAMGWYRQVPGKERELVAAITWRGDRTYYADSVKGRFTISRDNAKNTVYLQMNSLKPEDTAVYYCNKLGRIQYDYWGQGTQVTVSS | high polyreactivity
QVQLVESGGGLVQAGGSLRLSCAASGSTFRVYAMGWYRQAPGKESELVATISWGGGRTYYADSVKGRFTISRDNAKNTVYLLMNSLKPEDTAVYYCAADQRWTTDQPTAGDYWGQGTQVTVSS | low polyreactivity
QVQLVESGGGLVQAGGSLRLSCAASGRTFYDNAMGWDRQAPGKARELVAAITQSGGRTYYADSVKGRFTISRDNAKNTGYLQMNSLKPADTAVYYCAASWPNYLYEYWGQGTQVTVSS | high polyreactivity
QVQLVESGGGLVQAGGSLRLSCAASGSTFSYYAMGWYIQAAGKERELVADITLNGGDTYYADSVKGRFTISRDNAKNTVYLQMNSLKPEDTAVYYCAKDSTADELTGFDYWGQGTQVTVSS | low polyreactivity
QVQLVESGGVLVQAGGSLRLSCAASGFIFRSNGMGWYRQARGKERELVAVITSSTGSTSYADSVKGRFTISRDNAKNTVYLQMNSLKPEDTAVYSCAADYQFGRGAEPYVFFDPEMDYWGQGTQVTESS | low polyreactivity
QVQLVESGGGLVQAGGILRLSCAASGFIFDSYAMGWYRQAPGKERELVAAINWNGGRTYYADSVKGRFTISRDNAKNTVYLQMNRLKPEDTAVYYCAKDTDNWDVGGYVYDYDYWGQGTQVTVSS | high polyreactivity
QVQLVESGGGLVQAGGSLRLSCAASGSIFSGNAMGGYRQAPGKERELVAAISRTGTRTFYADSEKGRFTISRDNAKNTVYLQMNSLKPEDTAVYYCAADNPDGDGYDYWGQGTQVTVSS | high polyreactivity
QVQLVESGGGLVQAGGSLRLSCAASGRTFYGYAMGWYRQAPGKERELVASISWSTGSTHYADSVKGRFTISRDNAKNTVYLQMNSLKPEDTAVYYCAAPFWRDSYVQIDYDYWGQGTQVTVSS | low polyreactivity
QVQLVESGGGLVQAGGSLRLSCAASGRTFGYYAMGWYRQAPGKERELVAGIRSSGGSTYYADSVKGRFTISRDNAKNTVYLQMNSLKAEDTAVYYCAARLRSYNYRYGYDYWGQGTQVTVSS | high polyreactivity
QVQLVESGGGLVQAGGSLRLSCAASGSIFYSYAMGWYRQAPGKERELVADITSSGGSTYYADSVKGRFTISRDNAKNTVYFQMNSLKPEDTAVYYCAASSPAFYGMRYNYWGHGTQVTVSS | low polyreactivity
QVQLVESGGGLVQAGGSLRLSCAASGLIFAEYAMGWYRQAPGKERELVARITSGGSTDYADSVKGRFTISRDNAKNTVYLQMNRLKPEDTAVYYCSARYYSQDKNASTASDFDYWGQGTQVTVSS | low polyreactivity
QVQLVESGGGLVQAGGSLRLSCAASGIIYAYYAMGWYRQAPGKERELVAAISRSGGITYYADSVKGRFTISRDNAKNTVYLQMNSLKPEDTAVYYCARYSSRPYDYWGQGTQVTVSS | high polyreactivity
QDQLVESGGGLVQAGGSLRLSCDASGYIFQSNVLGWYRQAPGKERELVAAITVSGGSTYYADSVKGRFTISRDNAKNTVYLQMNSLKPEDTAVYYCAALVAHKGDYWGQGTQVTVSS | high polyreactivity
QVQLVESGVGLVQAGGSLRLSCAASGFIFPYYTMGWFRPAPGKERELVAAINVSGGSTYYADSVKGRFTISRDNAKNTVYVQMNSLKPEDTAVYYCAAVGGRFVGRSTMDYWGQGTQVTVSS | low polyreactivity
